Assay [1] has as its target M. gallisepticum affinity purified antigen. The experiment in a line: lectin affinity chromatography, protein in eluate as percent of load.
The target is the same in assay [2]. The assay can be described thus: lectin affinity chromatography, protein in eluate (about 1.5 mg loaded).

For the substance “Concanavalin A (immobilized Con A column) (from UniProt P02866 30-281)”, in assay [1], the % recovery in Con A elution turned out to be 5.7%. Also, the Total protein (mg) eluted from Con A column in assay [2] was found to be 0.088 mg.

Source of the values: patent US9138467.
